Substitutions are numbered along the chain they refer to. Values belong to the binder of their own block, whether it stands above or below them. Where no end group is shown, it is not given here. [ ]: non-standard residue; d: D form. Aib = CC(C)(N)C(=O)O
How the values were obtained:
[1] = target: GLP-1 receptor (GLP-1R), stably expressed on HEK293 cells; experiment: cell-based or functional assay
[2] = target: Glucagon receptor (GCGR), stably expressed on HEK293 cells; experiment: cell-based or functional assay

GLP-1R (nM EC50), receptor-mediated cAMP production in HEK293 cells [1]: 1.13 nM
GCGR (nM EC50), receptor-mediated cAMP production in HEK293 cells [2]: 0.806 nM
Binder: HSQGTFTSDYSKYLDERAAKEFIAWLEAGG-NH2 (not fully specified (residue 20); printed as HSQGTFTSDYSKYLDERAAK*EFIAWLEAGG) [dgc001]

GLP-1R (nM EC50), receptor-mediated cAMP production in HEK293 cells [1]: 1.23 nM
GCGR (nM EC50), receptor-mediated cAMP production in HEK293 cells [2]: 0.342 nM
B1: dgc016 (peptide)
peptide: HXQGTFTSDYSKYLEERAAKEFIAWLEGG
HELM: PEPTIDE1{H.[Aib].Q.G.T.F.T.S.D.Y.S.K.Y.L.E.E.R.A.A.K.E.F.I.A.W.L.E.G.G.[am]}|PEPTIDE2{[CCCCCCCCCCCCCCCC(=O)[*:2]].[gGlu].[gGlu]}$PEPTIDE1,PEPTIDE2,20:R3-3:R2$$$V2.0; N-terminus assumed
SMILES: CCCCCCCCCCCCCCCC(=O)N[C@@H](CCC(=O)N[C@@H](CCC(=O)NCCCC[C@H](NC(=O)[C@H](C)NC(=O)[C@H](C)NC(=O)[C@H](CCCNC(=N)N)NC(=O)[C@H](CCC(=O)O)NC(=O)[C@H](CCC(=O)O)NC(=O)[C@H](CC(C)C)NC(=O)[C@H](Cc1ccc(O)cc1)NC(=O)[C@H](CCCCN)NC(=O)[C@H](CO)NC(=O)[C@H](Cc1ccc(O)cc1)NC(=O)[C@H](CC(=O)O)NC(=O)[C@H](CO)NC(=O)[C@@H](NC(=O)[C@H](Cc1ccccc1)NC(=O)[C@@H](NC(=O)CNC(=O)[C@H](CCC(N)=O)NC(=O)C(C)(C)NC(=O)[C@@H](N)Cc1c[nH]cn1)[C@@H](C)O)[C@@H](C)O)C(=O)N[C@@H](CCC(=O)O)C(=O)N[C@@H](Cc1ccccc1)C(=O)N[C@H](C(=O)N[C@@H](C)C(=O)N[C@@H](Cc1c[nH]c2ccccc12)C(=O)N[C@@H](CC(C)C)C(=O)N[C@@H](CCC(=O)O)C(=O)NCC(=O)NCC(N)=O)[C@@H](C)CC)C(=O)O)C(=O)O

GLP-1R (nM EC50), receptor-mediated cAMP production in HEK293 cells [1]: 1.51 nM
GCGR (nM EC50), receptor-mediated cAMP production in HEK293 cells [2]: 0.883 nM
B2: dgc020 (peptide)
peptide: HXQGTFTSDYSKYLEERAAKEFIAWLEGEG
HELM: PEPTIDE1{H.[Aib].Q.G.T.F.T.S.D.Y.S.K.Y.L.E.E.R.A.A.K.E.F.I.A.W.L.E.G.E.G.[am]}|PEPTIDE2{[CCCCCCCCCCCCCCCC(=O)[*:2]].[gGlu].[gGlu]}$PEPTIDE1,PEPTIDE2,20:R3-3:R2$$$V2.0; N-terminus assumed
SMILES: CCCCCCCCCCCCCCCC(=O)N[C@@H](CCC(=O)N[C@@H](CCC(=O)NCCCC[C@H](NC(=O)[C@H](C)NC(=O)[C@H](C)NC(=O)[C@H](CCCNC(=N)N)NC(=O)[C@H](CCC(=O)O)NC(=O)[C@H](CCC(=O)O)NC(=O)[C@H](CC(C)C)NC(=O)[C@H](Cc1ccc(O)cc1)NC(=O)[C@H](CCCCN)NC(=O)[C@H](CO)NC(=O)[C@H](Cc1ccc(O)cc1)NC(=O)[C@H](CC(=O)O)NC(=O)[C@H](CO)NC(=O)[C@@H](NC(=O)[C@H](Cc1ccccc1)NC(=O)[C@@H](NC(=O)CNC(=O)[C@H](CCC(N)=O)NC(=O)C(C)(C)NC(=O)[C@@H](N)Cc1c[nH]cn1)[C@@H](C)O)[C@@H](C)O)C(=O)N[C@@H](CCC(=O)O)C(=O)N[C@@H](Cc1ccccc1)C(=O)N[C@H](C(=O)N[C@@H](C)C(=O)N[C@@H](Cc1c[nH]c2ccccc12)C(=O)N[C@@H](CC(C)C)C(=O)N[C@@H](CCC(=O)O)C(=O)NCC(=O)N[C@@H](CCC(=O)O)C(=O)NCC(N)=O)[C@@H](C)CC)C(=O)O)C(=O)O

GLP-1R (nM EC50), receptor-mediated cAMP production in HEK293 cells [1]: 0.792 nM
GCGR (nM EC50), receptor-mediated cAMP production in HEK293 cells [2]: 1.83 nM
B3: dgc019 (peptide)
peptide: B2 peptide
HELM: PEPTIDE1{H.[Aib].Q.G.T.F.T.S.D.Y.S.K.Y.L.E.E.R.A.A.K.E.F.I.A.W.L.E.G.E.G.[am]}|PEPTIDE2{[CCCCCCCCCCCCCCCC(=O)[*:2]].[gGlu]}$PEPTIDE1,PEPTIDE2,20:R3-2:R2$$$V2.0; N-terminus assumed
SMILES: CCCCCCCCCCCCCCCC(=O)N[C@@H](CCC(=O)NCCCC[C@H](NC(=O)[C@H](C)NC(=O)[C@H](C)NC(=O)[C@H](CCCNC(=N)N)NC(=O)[C@H](CCC(=O)O)NC(=O)[C@H](CCC(=O)O)NC(=O)[C@H](CC(C)C)NC(=O)[C@H](Cc1ccc(O)cc1)NC(=O)[C@H](CCCCN)NC(=O)[C@H](CO)NC(=O)[C@H](Cc1ccc(O)cc1)NC(=O)[C@H](CC(=O)O)NC(=O)[C@H](CO)NC(=O)[C@@H](NC(=O)[C@H](Cc1ccccc1)NC(=O)[C@@H](NC(=O)CNC(=O)[C@H](CCC(N)=O)NC(=O)C(C)(C)NC(=O)[C@@H](N)Cc1c[nH]cn1)[C@@H](C)O)[C@@H](C)O)C(=O)N[C@@H](CCC(=O)O)C(=O)N[C@@H](Cc1ccccc1)C(=O)N[C@H](C(=O)N[C@@H](C)C(=O)N[C@@H](Cc1c[nH]c2ccccc12)C(=O)N[C@@H](CC(C)C)C(=O)N[C@@H](CCC(=O)O)C(=O)NCC(=O)N[C@@H](CCC(=O)O)C(=O)NCC(N)=O)[C@@H](C)CC)C(=O)O

GLP-1R (nM EC50), receptor-mediated cAMP production in HEK293 cells [1]: 0.291 nM
GCGR (nM EC50), receptor-mediated cAMP production in HEK293 cells [2]: 1.04 nM
B4: dgc003 (peptide)
peptide: B2 peptide with E15D, G28A, E29G
HELM: PEPTIDE1{H.[Aib].Q.G.T.F.T.S.D.Y.S.K.Y.L.D.E.R.A.A.K.E.F.I.A.W.L.E.A.G.G.[am]}|PEPTIDE2{[CCCCCCCCCCCCCCCC(=O)[*:2]].[gGlu]}$PEPTIDE1,PEPTIDE2,20:R3-2:R2$$$V2.0; N-terminus assumed
SMILES: CCCCCCCCCCCCCCCC(=O)N[C@@H](CCC(=O)NCCCC[C@H](NC(=O)[C@H](C)NC(=O)[C@H](C)NC(=O)[C@H](CCCNC(=N)N)NC(=O)[C@H](CCC(=O)O)NC(=O)[C@H](CC(=O)O)NC(=O)[C@H](CC(C)C)NC(=O)[C@H](Cc1ccc(O)cc1)NC(=O)[C@H](CCCCN)NC(=O)[C@H](CO)NC(=O)[C@H](Cc1ccc(O)cc1)NC(=O)[C@H](CC(=O)O)NC(=O)[C@H](CO)NC(=O)[C@@H](NC(=O)[C@H](Cc1ccccc1)NC(=O)[C@@H](NC(=O)CNC(=O)[C@H](CCC(N)=O)NC(=O)C(C)(C)NC(=O)[C@@H](N)Cc1c[nH]cn1)[C@@H](C)O)[C@@H](C)O)C(=O)N[C@@H](CCC(=O)O)C(=O)N[C@@H](Cc1ccccc1)C(=O)N[C@H](C(=O)N[C@@H](C)C(=O)N[C@@H](Cc1c[nH]c2ccccc12)C(=O)N[C@@H](CC(C)C)C(=O)N[C@@H](CCC(=O)O)C(=O)N[C@@H](C)C(=O)NCC(=O)NCC(N)=O)[C@@H](C)CC)C(=O)O

GLP-1R (nM EC50), receptor-mediated cAMP production in HEK293 cells [1]: 0.382 nM
GCGR (nM EC50), receptor-mediated cAMP production in HEK293 cells [2]: 3.93 nM
Binder: H[Aib]QGTFTSDYSKYLEERAAKEFIAWLEGEG-NH2 (not fully specified (residue 20); printed as HAibQGTFTSDYSKYLEERAAK*EFIAWLEGEG) [dgc021]

GLP-1R (nM EC50), receptor-mediated cAMP production in HEK293 cells [1]: 0.401 nM
GCGR (nM EC50), receptor-mediated cAMP production in HEK293 cells [2]: 1.3 nM
B5: dgc018 (peptide)
peptide: B2 peptide with E15D
HELM: PEPTIDE1{H.[Aib].Q.G.T.F.T.S.D.Y.S.K.Y.L.D.E.R.A.A.K.E.F.I.A.W.L.E.G.E.G.[am]}|PEPTIDE2{[CCCCCCCCCCCCCCCC(=O)[*:2]].[gGlu]}$PEPTIDE1,PEPTIDE2,20:R3-2:R2$$$V2.0; N-terminus assumed
SMILES: CCCCCCCCCCCCCCCC(=O)N[C@@H](CCC(=O)NCCCC[C@H](NC(=O)[C@H](C)NC(=O)[C@H](C)NC(=O)[C@H](CCCNC(=N)N)NC(=O)[C@H](CCC(=O)O)NC(=O)[C@H](CC(=O)O)NC(=O)[C@H](CC(C)C)NC(=O)[C@H](Cc1ccc(O)cc1)NC(=O)[C@H](CCCCN)NC(=O)[C@H](CO)NC(=O)[C@H](Cc1ccc(O)cc1)NC(=O)[C@H](CC(=O)O)NC(=O)[C@H](CO)NC(=O)[C@@H](NC(=O)[C@H](Cc1ccccc1)NC(=O)[C@@H](NC(=O)CNC(=O)[C@H](CCC(N)=O)NC(=O)C(C)(C)NC(=O)[C@@H](N)Cc1c[nH]cn1)[C@@H](C)O)[C@@H](C)O)C(=O)N[C@@H](CCC(=O)O)C(=O)N[C@@H](Cc1ccccc1)C(=O)N[C@H](C(=O)N[C@@H](C)C(=O)N[C@@H](Cc1c[nH]c2ccccc12)C(=O)N[C@@H](CC(C)C)C(=O)N[C@@H](CCC(=O)O)C(=O)NCC(=O)N[C@@H](CCC(=O)O)C(=O)NCC(N)=O)[C@@H](C)CC)C(=O)O

GLP-1R (nM EC50), receptor-mediated cAMP production in HEK293 cells [1]: 0.627 nM
GCGR (nM EC50), receptor-mediated cAMP production in HEK293 cells [2]: 3.95 nM
B6: dgc017 (peptide)
peptide: HXQGTFTSDYSKYLDEKAAKEFIAWLEGG
HELM: PEPTIDE1{H.[Aib].Q.G.T.F.T.S.D.Y.S.K.Y.L.D.E.K.A.A.K.E.F.I.A.W.L.E.G.G.[am]}|PEPTIDE2{[CCCCCCCCCCCCCCCC(=O)[*:2]].[gGlu]}$PEPTIDE1,PEPTIDE2,20:R3-2:R2$$$V2.0; N-terminus assumed
SMILES: CCCCCCCCCCCCCCCC(=O)N[C@@H](CCC(=O)NCCCC[C@H](NC(=O)[C@H](C)NC(=O)[C@H](C)NC(=O)[C@H](CCCCN)NC(=O)[C@H](CCC(=O)O)NC(=O)[C@H](CC(=O)O)NC(=O)[C@H](CC(C)C)NC(=O)[C@H](Cc1ccc(O)cc1)NC(=O)[C@H](CCCCN)NC(=O)[C@H](CO)NC(=O)[C@H](Cc1ccc(O)cc1)NC(=O)[C@H](CC(=O)O)NC(=O)[C@H](CO)NC(=O)[C@@H](NC(=O)[C@H](Cc1ccccc1)NC(=O)[C@@H](NC(=O)CNC(=O)[C@H](CCC(N)=O)NC(=O)C(C)(C)NC(=O)[C@@H](N)Cc1c[nH]cn1)[C@@H](C)O)[C@@H](C)O)C(=O)N[C@@H](CCC(=O)O)C(=O)N[C@@H](Cc1ccccc1)C(=O)N[C@H](C(=O)N[C@@H](C)C(=O)N[C@@H](Cc1c[nH]c2ccccc12)C(=O)N[C@@H](CC(C)C)C(=O)N[C@@H](CCC(=O)O)C(=O)NCC(=O)NCC(N)=O)[C@@H](C)CC)C(=O)O

From patent US20230174608A1 (published 2023)
